Data: patent US20230374157A1

How the values were obtained:
[1] = biological target: His-tagged human EGFR extracellular domain (expressed and purified in-house) (human) (UniProt P00533); assay: BLI, antibody on AHC tips, monomeric EGFR ECD in solution, 1:1 fit
[2] = biological target: human His-tagged HER3 extracellular domain (in-house expressed) (human) (UniProt P21860); assay: BLI sandwich assay, antibody held on immobilized biotinylated EGFR, 500 nM HER3 ECD in solution, 1:1 fit
[3] = biological target: His-tagged human HER3 extracellular domain (Acro ER3-H5223) (human) (UniProt P21860); assay: BLI, antibody on AHC tips, monomeric HER3 ECD in solution, 1:1 fit
[4] = biological target: biotinylated human EGFR extracellular domain (Acro EGF-H82E3) (human) (UniProt P00533); assay: BLI avidity format, biotinylated EGFR ECD on SA sensors, antibody in solution, 1:1 fit
[5] = biological target: His-tagged human HER3 extracellular domain (Acro ER3-H5223) (human) (UniProt P21860); assay: BLI, SI-1R12 covalently coupled to AR2G sensors, monomeric HER3 ECD in solution, 1:1 fit

SI-1X4.2, nimotuzumab-based EGFR x HER3 bispecific antibody with MM-111 anti-HER3 scFv, sequence (heavy): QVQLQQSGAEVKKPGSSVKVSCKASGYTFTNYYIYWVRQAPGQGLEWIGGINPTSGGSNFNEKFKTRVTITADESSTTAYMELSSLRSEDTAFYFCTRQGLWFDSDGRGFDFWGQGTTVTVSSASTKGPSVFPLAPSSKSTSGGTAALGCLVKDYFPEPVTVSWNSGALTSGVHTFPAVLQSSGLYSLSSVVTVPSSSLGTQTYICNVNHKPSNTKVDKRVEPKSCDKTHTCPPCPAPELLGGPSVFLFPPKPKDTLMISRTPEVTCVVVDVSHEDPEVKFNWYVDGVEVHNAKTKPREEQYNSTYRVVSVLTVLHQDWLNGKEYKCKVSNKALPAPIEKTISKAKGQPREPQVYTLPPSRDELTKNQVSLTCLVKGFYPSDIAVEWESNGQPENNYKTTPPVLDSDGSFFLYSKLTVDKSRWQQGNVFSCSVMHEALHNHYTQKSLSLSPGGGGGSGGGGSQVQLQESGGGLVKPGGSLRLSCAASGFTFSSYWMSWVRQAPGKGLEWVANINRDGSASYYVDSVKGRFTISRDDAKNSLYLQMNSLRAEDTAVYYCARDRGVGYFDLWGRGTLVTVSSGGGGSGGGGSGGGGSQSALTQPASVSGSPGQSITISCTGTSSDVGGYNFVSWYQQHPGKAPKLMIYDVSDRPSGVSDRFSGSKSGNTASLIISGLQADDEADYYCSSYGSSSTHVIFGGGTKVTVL
SI-1X4.2, nimotuzumab-based EGFR x HER3 bispecific antibody with MM-111 anti-HER3 scFv, sequence (light): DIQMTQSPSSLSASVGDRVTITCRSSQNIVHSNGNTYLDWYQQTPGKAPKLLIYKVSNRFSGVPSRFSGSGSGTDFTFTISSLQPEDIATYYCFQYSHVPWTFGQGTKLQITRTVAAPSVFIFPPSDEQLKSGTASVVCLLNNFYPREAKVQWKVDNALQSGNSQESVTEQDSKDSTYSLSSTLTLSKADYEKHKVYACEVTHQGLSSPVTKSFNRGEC

SI-1X6.4, bispecific tetravalent anti-EGFR x HER3 antibody (cetuximab variable regions with mouse framework, MM-111 anti-HER3 scFv) (bispecific antibody)
Kd [1]: 5.38 nM | Kd [2]: 617 nM | Kd [3]: 107 nM

SI-1X2, panitumumab-based EGFR x HER3 bispecific antibody with MM-111 anti-HER3 scFv
Kd [1]: 2.77 nM | Kd [2]: 770 nM | Kd [3]: 131 nM

SI-1X4.2, nimotuzumab-based EGFR x HER3 bispecific antibody with MM-111 anti-HER3 scFv
Kd [1]: 18.8 nM | koff [1]: 0.00202 s⁻¹ | kon [1]: 108000 M⁻¹ s⁻¹ | Kd [2]: 165 nM | koff [2]: 0.0459 s⁻¹ | kon [2]: 279000 M⁻¹ s⁻¹ | Kd [4]: 0.398 nM | koff [4]: 4.25e-05 s⁻¹ | kon [4]: 107000 M⁻¹ s⁻¹ | Kd [3]: 146 nM | koff [3]: 0.038 s⁻¹ | kon [3]: 260000 M⁻¹ s⁻¹

SI-1R12 (MM-111), HER2 x HER3 bispecific human serum albumin fusion (bispecific antibody)
Kd [5]: 95.6 nM | koff [5]: 0.0422 s⁻¹ | kon [5]: 441000 M⁻¹ s⁻¹
